B1: FliF (flagellar MS-ring protein), wild type (natural protein, Salmonella enterica serovar Typhimurium, UniProt P15928 1-560, looked up)
chain: MSATASTATQPKPLEWLNRLRANPRIPLIVAGSAAVAIVVAMVLWAKTPDYRTLFSNLSDQDGGAIVAQLTQMNIPYRFANGSGAIEVPADKVHELRLRLAQQGLPKGGAVGFELLDQEKFGISQFSEQVNYQRALEGELARTIETLGPVKSARVHLAMPKPSLFVREQKSPSASVTVTLEPGRALDEGQISAVVHLVSSAVAGLPPGNVTLVDQSGHLLTQSNTSGRDLNDAQLKFANDVESRIQRRIEAILSPIVGNGNVHAQVTAQLDFANKEQTEEHYSPNGDASKATLRSRQLNISEQVGAGYPGGVPGALSNQPAPPNEAPIATPPTNQQNAQNTPQTSTSTNSNSAGPRSTQRNETSNYEVDRTIRHTKMNVGDIERLSVAVVVNYKTLADGKPLPLTADQMKQIEDLTREAMGFSDKRGDTLNVVNSPFSAVDNTGGELPFWQQQSFIDQLLAAGRWLLVLVVAWILWRKAVRPQLTRRVEEAKAAQEQAQVRQETEEAVEVRLSKDEQLQQRRANQRLGAEVMSQRIREMSDNDPRVVALVIRQWMSNDHE
B2: FliF(G217P) (natural protein, Salmonella enterica serovar Typhimurium)
chain: MSATASTATQPKPLEWLNRLRANPRIPLIVAGSAAVAIVVAMVLWAKTPDYRTLFSNLSDQDGGAIVAQLTQMNIPYRFANGSGAIEVPADKVHELRLRLAQQGLPKGGAVGFELLDQEKFGISQFSEQVNYQRALEGELARTIETLGPVKSARVHLAMPKPSLFVREQKSPSASVTVTLEPGRALDEGQISAVVHLVSSAVAGLPPGNVTLVDQSPHLLTQSNTSGRDLNDAQLKFANDVESRIQRRIEAILSPIVGNGNVHAQVTAQLDFANKEQTEEHYSPNGDASKATLRSRQLNISEQVGAGYPGGVPGALSNQPAPPNEAPIATPPTNQQNAQNTPQTSTSTNSNSAGPRSTQRNETSNYEVDRTIRHTKMNVGDIERLSVAVVVNYKTLADGKPLPLTADQMKQIEDLTREAMGFSDKRGDTLNVVNSPFSAVDNTGGELPFWQQQSFIDQLLAAGRWLLVLVVAWILWRKAVRPQLTRRVEEAKAAQEQAQVRQETEEAVEVRLSKDEQLQQRRANQRLGAEVMSQRIREMSDNDPRVVALVIRQWMSNDHE
B3: FliF(G217A) (natural protein, Salmonella enterica serovar Typhimurium)
chain: MSATASTATQPKPLEWLNRLRANPRIPLIVAGSAAVAIVVAMVLWAKTPDYRTLFSNLSDQDGGAIVAQLTQMNIPYRFANGSGAIEVPADKVHELRLRLAQQGLPKGGAVGFELLDQEKFGISQFSEQVNYQRALEGELARTIETLGPVKSARVHLAMPKPSLFVREQKSPSASVTVTLEPGRALDEGQISAVVHLVSSAVAGLPPGNVTLVDQSAHLLTQSNTSGRDLNDAQLKFANDVESRIQRRIEAILSPIVGNGNVHAQVTAQLDFANKEQTEEHYSPNGDASKATLRSRQLNISEQVGAGYPGGVPGALSNQPAPPNEAPIATPPTNQQNAQNTPQTSTSTNSNSAGPRSTQRNETSNYEVDRTIRHTKMNVGDIERLSVAVVVNYKTLADGKPLPLTADQMKQIEDLTREAMGFSDKRGDTLNVVNSPFSAVDNTGGELPFWQQQSFIDQLLAAGRWLLVLVVAWILWRKAVRPQLTRRVEEAKAAQEQAQVRQETEEAVEVRLSKDEQLQQRRANQRLGAEVMSQRIREMSDNDPRVVALVIRQWMSNDHE
B4: FliF(G217W) (natural protein, Salmonella enterica serovar Typhimurium)
chain: MSATASTATQPKPLEWLNRLRANPRIPLIVAGSAAVAIVVAMVLWAKTPDYRTLFSNLSDQDGGAIVAQLTQMNIPYRFANGSGAIEVPADKVHELRLRLAQQGLPKGGAVGFELLDQEKFGISQFSEQVNYQRALEGELARTIETLGPVKSARVHLAMPKPSLFVREQKSPSASVTVTLEPGRALDEGQISAVVHLVSSAVAGLPPGNVTLVDQSWHLLTQSNTSGRDLNDAQLKFANDVESRIQRRIEAILSPIVGNGNVHAQVTAQLDFANKEQTEEHYSPNGDASKATLRSRQLNISEQVGAGYPGGVPGALSNQPAPPNEAPIATPPTNQQNAQNTPQTSTSTNSNSAGPRSTQRNETSNYEVDRTIRHTKMNVGDIERLSVAVVVNYKTLADGKPLPLTADQMKQIEDLTREAMGFSDKRGDTLNVVNSPFSAVDNTGGELPFWQQQSFIDQLLAAGRWLLVLVVAWILWRKAVRPQLTRRVEEAKAAQEQAQVRQETEEAVEVRLSKDEQLQQRRANQRLGAEVMSQRIREMSDNDPRVVALVIRQWMSNDHE
B5: FliF(∆165–167) (natural protein, Salmonella enterica serovar Typhimurium)
chain: MSATASTATQPKPLEWLNRLRANPRIPLIVAGSAAVAIVVAMVLWAKTPDYRTLFSNLSDQDGGAIVAQLTQMNIPYRFANGSGAIEVPADKVHELRLRLAQQGLPKGGAVGFELLDQEKFGISQFSEQVNYQRALEGELARTIETLGPVKSARVHLAMPKPSLEQKSPSASVTVTLEPGRALDEGQISAVVHLVSSAVAGLPPGNVTLVDQSGHLLTQSNTSGRDLNDAQLKFANDVESRIQRRIEAILSPIVGNGNVHAQVTAQLDFANKEQTEEHYSPNGDASKATLRSRQLNISEQVGAGYPGGVPGALSNQPAPPNEAPIATPPTNQQNAQNTPQTSTSTNSNSAGPRSTQRNETSNYEVDRTIRHTKMNVGDIERLSVAVVVNYKTLADGKPLPLTADQMKQIEDLTREAMGFSDKRGDTLNVVNSPFSAVDNTGGELPFWQQQSFIDQLLAAGRWLLVLVVAWILWRKAVRPQLTRRVEEAKAAQEQAQVRQETEEAVEVRLSKDEQLQQRRANQRLGAEVMSQRIREMSDNDPRVVALVIRQWMSNDHE
B6: FliF(∆214–220) (natural protein, Salmonella enterica serovar Typhimurium)
chain: MSATASTATQPKPLEWLNRLRANPRIPLIVAGSAAVAIVVAMVLWAKTPDYRTLFSNLSDQDGGAIVAQLTQMNIPYRFANGSGAIEVPADKVHELRLRLAQQGLPKGGAVGFELLDQEKFGISQFSEQVNYQRALEGELARTIETLGPVKSARVHLAMPKPSLFVREQKSPSASVTVTLEPGRALDEGQISAVVHLVSSAVAGLPPGNVTLVTQSNTSGRDLNDAQLKFANDVESRIQRRIEAILSPIVGNGNVHAQVTAQLDFANKEQTEEHYSPNGDASKATLRSRQLNISEQVGAGYPGGVPGALSNQPAPPNEAPIATPPTNQQNAQNTPQTSTSTNSNSAGPRSTQRNETSNYEVDRTIRHTKMNVGDIERLSVAVVVNYKTLADGKPLPLTADQMKQIEDLTREAMGFSDKRGDTLNVVNSPFSAVDNTGGELPFWQQQSFIDQLLAAGRWLLVLVVAWILWRKAVRPQLTRRVEEAKAAQEQAQVRQETEEAVEVRLSKDEQLQQRRANQRLGAEVMSQRIREMSDNDPRVVALVIRQWMSNDHE
B7: FliF(∆221–227) (natural protein, Salmonella enterica serovar Typhimurium)
chain: MSATASTATQPKPLEWLNRLRANPRIPLIVAGSAAVAIVVAMVLWAKTPDYRTLFSNLSDQDGGAIVAQLTQMNIPYRFANGSGAIEVPADKVHELRLRLAQQGLPKGGAVGFELLDQEKFGISQFSEQVNYQRALEGELARTIETLGPVKSARVHLAMPKPSLFVREQKSPSASVTVTLEPGRALDEGQISAVVHLVSSAVAGLPPGNVTLVDQSGHLLRDLNDAQLKFANDVESRIQRRIEAILSPIVGNGNVHAQVTAQLDFANKEQTEEHYSPNGDASKATLRSRQLNISEQVGAGYPGGVPGALSNQPAPPNEAPIATPPTNQQNAQNTPQTSTSTNSNSAGPRSTQRNETSNYEVDRTIRHTKMNVGDIERLSVAVVVNYKTLADGKPLPLTADQMKQIEDLTREAMGFSDKRGDTLNVVNSPFSAVDNTGGELPFWQQQSFIDQLLAAGRWLLVLVVAWILWRKAVRPQLTRRVEEAKAAQEQAQVRQETEEAVEVRLSKDEQLQQRRANQRLGAEVMSQRIREMSDNDPRVVALVIRQWMSNDHE

Values joined by “and” are separate entries in the source; they are usually repeats but may differ in a detail not shown here. Equal values may be shown once.

The first series concerns the molecule itself. Briefly: cryo-EM structure.
One may read the stoichiometry N as a count of units in the complex or per binding partner. For the protein B1, the “stoichiometry N” value was 33 and 34.

The next series deals with the molecule itself. The series can be described thus: negative-stain electron microscopy.
As to B2, the binding result is “binds”. Turning to B3, the binding result is recorded as “binds”. Same read-out and setting: the entry for B4 is “binds”; for B5 it is “binds”; for B6 it is “binds”. As to B7, the binding result is on record as “binds”.

The values are drawn from PMC11739650 (Communications Biology, 2025).
